Source: the supplement of paper PMC9112550, “Optimization of the antimicrobial peptide Bac7 by deep mutational scanning” (BMC Biology, 2022)

System: Escherichia coli TOP10
Experiment: shrunken log2 fold change of peptide-encoding DNA abundance (4.5 h post-induction vs induction); higher = less antimicrobial activity (less host growth inhibition)
Conditions: time post-induction: 4.5 h; library: site-saturation at positions 5, 18, 19, 20
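Note: peptides expressed intracellularly from a pBAD plasmid library in pooled LB shake-flask culture, induced with 0.3% L-arabinose, DNA abundance read by NGS, three biological replicates, DESeq2 with apeglm shrinkage.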

In order of rising “shrunken log2 fold change” value:
1. RRIRCRPPRLPRPRPRPYYNPRP  -1.2
2. RRIRCRPPRLPRPRPRPYYMPRP  -0.904
3. RRIRDRPPRLPRPRPRPFHTPRP  -0.569
4. RRIRCRPPRLPRPRPRPYWYPRP  -0.553
5. RRIRCRPPRLPRPRPRPYTYPRP  -0.456
6. RRIRCRPPRLPRPRPRPYYSPRP  -0.437
7. RRIRDRPPRLPRPRPRPCYRPRP  -0.417
8. RRIRCRPPRLPRPRPRPYWEPRP  -0.388
9. RRIRDRPPRLPRPRPRPFIPPRP  -0.334
10. RRIRDRPPRLPRPRPRPCNQPRP  -0.285
11. RRIRDRPPRLPRPRPRPFTKPRP  -0.262
12. RRIRDRPPRLPRPRPRPFYFPRP  -0.262
13. RRIRDRPPRLPRPRPRPFGLPRP  -0.259
14. RRIRDRPPRLPRPRPRPFTRPRP  -0.242
15. RRIRDRPPRLPRPRPRPFFQPRP  -0.24
16. RRIRDRPPRLPRPRPRPFNNPRP  -0.226
17. RRIRDRPPRLPRPRPRPAFNPRP  -0.223
18. RRIRDRPPRLPRPRPRPFSGPRP  -0.214
19. RRIRDRPPRLPRPRPRPFQHPRP  -0.202
20. RRIRDRPPRLPRPRPRPCTCPRP  -0.198
21. RRIRDRPPRLPRPRPRPANDPRP  -0.176
22. RRIRDRPPRLPRPRPRPFSLPRP  -0.176
23. RRIRDRPPRLPRPRPRPCITPRP  -0.128
24. RRIRCRPPRLPRPRPRPYVCPRP  -0.11
25. RRIRDRPPRLPRPRPRPGKCPRP  -0.105
26. RRIRDRPPRLPRPRPRPCPLPRP  -0.0882
27. RRIRDRPPRLPRPRPRPFRAPRP  -0.0871
28. RRIRDRPPRLPRPRPRPDWNPRP  -0.0851
29. RRIRDRPPRLPRPRPRPFYLPRP  -0.085
30. RRIRDRPPRLPRPRPRPFCIPRP  -0.0778
31. RRIRDRPPRLPRPRPRPCTFPRP  -0.0767
32. RRIRDRPPRLPRPRPRPFFYPRP  -0.0714
33. RRIRDRPPRLPRPRPRPAYIPRP  -0.0656
34. RRIRDRPPRLPRPRPRPCASPRP  -0.0652
35. RRIRDRPPRLPRPRPRPDHIPRP  -0.0651
36. RRIRDRPPRLPRPRPRPCALPRP  -0.0616
37. RRIRDRPPRLPRPRPRPADCPRP  -0.0601
38. RRIRDRPPRLPRPRPRPCSMPRP  -0.0575
39. RRIRDRPPRLPRPRPRPDRKPRP  -0.055
40. RRIRDRPPRLPRPRPRPEQPPRP  -0.0458
41. RRIRCRPPRLPRPRPRPYSRPRP  -0.0442
42. RRIRDRPPRLPRPRPRPCHHPRP  -0.0426
43. RRIRDRPPRLPRPRPRPCMCPRP  -0.0426
44. RRIRDRPPRLPRPRPRPCSIPRP  -0.0309
45. RRIRDRPPRLPRPRPRPDFTPRP  -0.0299
46. RRIRDRPPRLPRPRPRPFADPRP  -0.0225
47. RRIRDRPPRLPRPRPRPGKEPRP  -0.0214
48. RRIRDRPPRLPRPRPRPFEVPRP  -0.0211
49. RRIRDRPPRLPRPRPRPEQEPRP  -0.0197
50. RRIRDRPPRLPRPRPRPENRPRP  -0.0191
51. RRIRDRPPRLPRPRPRPFLGPRP  -0.0161
52. RRIRDRPPRLPRPRPRPAKSPRP  -0.0126
53. RRIRDRPPRLPRPRPRPEGEPRP  -0.0124
54. RRIRDRPPRLPRPRPRPDIDPRP  -0.012
55. RRIRDRPPRLPRPRPRPCVVPRP  -0.00921
56. RRIRDRPPRLPRPRPRPEKVPRP  -0.00893
57. RRIRDRPPRLPRPRPRPFKRPRP  -0.00875
58. RRIRDRPPRLPRPRPRPFGDPRP  -0.0062
59. RRIRDRPPRLPRPRPRPEKMPRP  -0.00458
60. RRIRDRPPRLPRPRPRPDSGPRP  -0.00436
61. RRIRDRPPRLPRPRPRPDDIPRP  -0.00277
62. RRIRDRPPRLPRPRPRPEHLPRP  -0.00213
63. RRIRDRPPRLPRPRPRPDYYPRP  0.00235
64. RRIRDRPPRLPRPRPRPFKPPRP  0.00312
65. RRIRDRPPRLPRPRPRPELVPRP  0.00724
66. RRIRDRPPRLPRPRPRPDPNPRP  0.00812
67. RRIRDRPPRLPRPRPRPDMLPRP  0.00888
68. RRIRDRPPRLPRPRPRPDGKPRP  0.00996
69. RRIRDRPPRLPRPRPRPFNEPRP  0.0103
70. RRIRDRPPRLPRPRPRPCDQPRP  0.0112
71. RRIRDRPPRLPRPRPRPDRFPRP  0.0112
72. RRIRDRPPRLPRPRPRPEMPPRP  0.0164
73. RRIRDRPPRLPRPRPRPCMPPRP  0.0198
74. RRIRDRPPRLPRPRPRPDKKPRP  0.0252
75. RRIRDRPPRLPRPRPRPDRQPRP  0.0286
76. RRIRDRPPRLPRPRPRPCAIPRP  0.029
77. RRIRDRPPRLPRPRPRPAYSPRP  0.0295
78. RRIRDRPPRLPRPRPRPDPEPRP  0.0311
79. RRIRDRPPRLPRPRPRPESRPRP  0.0324
80. RRIRDRPPRLPRPRPRPCIWPRP  0.033
81. RRIRDRPPRLPRPRPRPDNMPRP  0.0341
82. RRIRDRPPRLPRPRPRPEAIPRP  0.0379
83. RRIRDRPPRLPRPRPRPCLYPRP  0.0504
84. RRIRDRPPRLPRPRPRPECLPRP  0.0572
85. RRIRDRPPRLPRPRPRPDPMPRP  0.0611
86. RRIRDRPPRLPRPRPRPGDCPRP  0.0646
87. RRIRDRPPRLPRPRPRPDTDPRP  0.0647
88. RRIRDRPPRLPRPRPRPDPRPRP  0.0663
89. RRIRDRPPRLPRPRPRPAHAPRP  0.0741
90. RRIRDRPPRLPRPRPRPCRPPRP  0.0754
91. RRIRDRPPRLPRPRPRPEPQPRP  0.0781
92. RRIRDRPPRLPRPRPRPFLSPRP  0.0846
93. RRIRDRPPRLPRPRPRPCEQPRP  0.0856
94. RRIRDRPPRLPRPRPRPFMIPRP  0.0898
95. RRIRDRPPRLPRPRPRPGDSPRP  0.13
96. RRIRDRPPRLPRPRPRPAYPPRP  0.147
97. RRIRDRPPRLPRPRPRPDNRPRP  0.147
98. RRIRDRPPRLPRPRPRPCCTPRP  0.149
99. RRIRDRPPRLPRPRPRPGEMPRP  0.163
100. RRIRDRPPRLPRPRPRPEVHPRP  0.168
101. RRIRDRPPRLPRPRPRPGFEPRP  0.175
102. RRIRDRPPRLPRPRPRPAEIPRP  0.184
103. RRIRDRPPRLPRPRPRPCEPPRP  0.194
104. RRIRDRPPRLPRPRPRPDVNPRP  0.209
105. RRIRDRPPRLPRPRPRPETYPRP  0.217
106. RRIRDRPPRLPRPRPRPENVPRP  0.218
107. RRIRDRPPRLPRPRPRPALCPRP  0.225
108. RRIRDRPPRLPRPRPRPDVGPRP  0.232
109. RRIRDRPPRLPRPRPRPANWPRP  0.239
110. RRIRDRPPRLPRPRPRPAIWPRP  0.24
111. RRIRDRPPRLPRPRPRPFEDPRP  0.265
112. RRIRDRPPRLPRPRPRPCSEPRP  0.283
113. RRIRDRPPRLPRPRPRPDPWPRP  0.295
114. RRIRDRPPRLPRPRPRPAQNPRP  0.308
115. RRIRDRPPRLPRPRPRPEPWPRP  0.32
116. RRIRDRPPRLPRPRPRPGCQPRP  0.341
117. RRIRDRPPRLPRPRPRPEMYPRP  0.363
118. RRIRDRPPRLPRPRPRPAPSPRP  0.367
119. RRIRDRPPRLPRPRPRPAIMPRP  0.373
120. RRIRDRPPRLPRPRPRPGCRPRP  0.398
121. RRIRDRPPRLPRPRPRPAWDPRP  0.4
122. RRIRDRPPRLPRPRPRPAIVPRP  0.41
123. RRIRDRPPRLPRPRPRPALHPRP  0.438
124. RRIRDRPPRLPRPRPRPARFPRP  0.446
125. RRIRDRPPRLPRPRPRPEKNPRP  0.489
126. RRIRDRPPRLPRPRPRPCLLPRP  0.491
127. RRIRDRPPRLPRPRPRPEDTPRP  0.509
128. RRIRDRPPRLPRPRPRPCFAPRP  0.512
129. RRIRDRPPRLPRPRPRPAMCPRP  0.531
130. RRIRDRPPRLPRPRPRPEPHPRP  0.533
131. RRIRDRPPRLPRPRPRPAMAPRP  0.575
132. RRIRDRPPRLPRPRPRPEIHPRP  0.597
133. RRIRDRPPRLPRPRPRPDPPPRP  0.627
134. RRIRDRPPRLPRPRPRPCCDPRP  0.655
135. RRIRDRPPRLPRPRPRPATRPRP  0.701
136. RRIRDRPPRLPRPRPRPECNPRP  0.741
137. RRIRDRPPRLPRPRPRPAWPPRP  0.815
138. RRIRDRPPRLPRPRPRPEDSPRP  0.882
139. RRIRDRPPRLPRPRPRPACWPRP  0.929
140. RRIRDRPPRLPRPRPRPELYPRP  1.13
141. RRIRDRPPRLPRPRPRPCAQPRP  1.19
142. RRIRDRPPRLPRPRPRPAAAPRP  1.35
143. RRIRDRPPRLPRPRPRPECDPRP  1.39
144. RRIRDRPPRLPRPRPRPEQDPRP  1.39
145. RRIRDRPPRLPRPRPRPDCAPRP  1.41
146. RRIRDRPPRLPRPRPRPELDPRP  1.47
147. RRIRDRPPRLPRPRPRPEIKPRP  1.54
148. RRIRDRPPRLPRPRPRPEVWPRP  1.75
149. RRIRDRPPRLPRPRPRPEDMPRP  1.81
150. RRIRDRPPRLPRPRPRPEARPRP  1.96
